16 sequences from the supplement of paper PMC9170038 can be followed below.

The subject of the data set is K4 kissing-loop RNA reporter. Description: apparent KD of K4 kissing-loop reporter; higher = weaker reporter binding. To be noted: Eterna round: R107. The method, then:
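RNA-MaP round R107: designed RNA switches with theophylline, tryptophan, arginine or FMN aptamers are transcribed on-chip within common flanks. They are titrated with a labelled K4 kissing-loop RNA reporter in RNA-MaP buffer (100 mM Tris pH 7.5, 80 mM KCl, 4 mM MgCl2), without ligand or with the indicated ligand. Median apparent KD per design.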

Where [1] appears, read: input ligand: theophylline 20 uM.
Setting [2] is: input ligand: tryptophan 2.4 mM.
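Further: bound reporter read as fluorescence of individual clusters on recovered sequencing chips by microscopy, with normalized cluster intensities fitted with a binding model.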

“AUGUUGAGCGGAAGGAGCGGCUGAACCAGUGAUGUUGGUUAAUCCAAGUGAUGUUGGAAAAGCCAGGUAGGUCGCCGCUUUAUGU [Same State Arg B GF 2]”: the “apparent KD of K4 kissing-loop reporter” value reads like this: (input ligand: FMN 200 uM) 821 nM; (input ligand: arginine 13.2 mM) 534 nM; (input ligand: none) 902 nM; under setting [1], 896 nM; under setting [2], 722 nM.

Consider “AUUAUAAAGGCGGCCGCCACUAGUGAUGUUAGUGACUAUAGUAUUAUCUAUAGAAUAAAAUAAAAUAGGACCGGGCCAAAAUAUU [AstrosExTryB#2]”, for which the “apparent KD of K4 kissing-loop reporter” value (input ligand: FMN 200 uM) was determined as 535 nM; the “apparent KD of K4 kissing-loop reporter” value (input ligand: arginine 13.2 mM) was determined as 411 nM; the “apparent KD of K4 kissing-loop reporter” value (input ligand: none) is 525 nM; the “apparent KD of K4 kissing-loop reporter” value under setting [1] came to 493 nM; the “apparent KD of K4 kissing-loop reporter” value under setting [2] turned out to be 464 nM.

Turning to “AUUAUCAAUUUAUUAUAUAACUUUUCAGAAGGAGCGUGGAAGUACACAGGUAGGUCGCUGAAUAUAGGACUAGUGAUGUUAGUUA [JR_Nu_SSArginiA_Sub024]”, the “apparent KD of K4 kissing-loop reporter” value is, setting by setting: (input ligand: FMN 200 uM) 236 nM; (input ligand: arginine 13.2 mM) 221 nM; (input ligand: none) 266 nM; under setting [1], 298 nM; under setting [2], 248 nM.

Take “AUUGCGGCCGUUCUAUCACCAGGCGGAGAUACCAGAUGCCAGCAGAUCCCUUGGCAGCUCUGCACGAGAUCCAGUGAUGUUGGGU [theeternabot_exclusion_KL_Theo_A_9]”: the “apparent KD of K4 kissing-loop reporter” value is, setting by setting: (input ligand: FMN 200 uM) 319 nM; (input ligand: arginine 13.2 mM) 239 nM; (input ligand: none) 320 nM; under setting [1], 288 nM; under setting [2], 276 nM.

For “AUUUAAUGUAUAGAUUAUAUACAUUAUUCAGAGGAUAUGCAUUGAAGCAGAAGGCUGGGUGUAGUGAUGUUGCAGUUUUAAUUUA [whbob_SS_FMNA__2th173]”, the “apparent KD of K4 kissing-loop reporter” value is 150 nM (input ligand: FMN 200 uM); 254 nM (input ligand: arginine 13.2 mM); 152 nM (input ligand: none); 224 nM under setting [1]; 122 nM under setting [2].

“AUUUGUUUAUGUGAUACCAGACUAAGCAGUGAUGUUGCUUUUAUUUUUGAAUUUUAAAUAGUCCCUUGGCAGCACUAUGUCUGUA [#05 K4 Theophylline B Same State]”: the “apparent KD of K4 kissing-loop reporter” value (input ligand: FMN 200 uM) worked out at 96.4 nM; the “apparent KD of K4 kissing-loop reporter” value (input ligand: arginine 13.2 mM) worked out at 147 nM; the “apparent KD of K4 kissing-loop reporter” value (input ligand: none) is 135 nM; the “apparent KD of K4 kissing-loop reporter” value under setting [1] worked out at 161 nM; the “apparent KD of K4 kissing-loop reporter” value under setting [2] was found to be 94.2 nM.

In the case of “AUUUUGGUUGAGAGUGAUGUUCCUUGUGUUCGAGGACCGGUACGGCCGCCACUCGGGUAGAAAAUAAAAGAAAUGUUUGAUUUUU [BDazzled - #11 SS Tryptophan A]”, the “apparent KD of K4 kissing-loop reporter” value reads like this: (input ligand: FMN 200 uM) 242 nM; (input ligand: arginine 13.2 mM) 86.1 nM; (input ligand: none) 157 nM; under setting [1], 143 nM; under setting [2], 215 nM.

As to “AUUUUUUACAGAAGGAGCGUGUUAUAAUAAUCAUAUUGCUUAGCGAGUGAUGUUCGCUUUACACAGGUAGGUCGCUGUUUAUUUA [JR_Nu_ExcArginiB_Sub029]”, the “apparent KD of K4 kissing-loop reporter” value by setting is: (input ligand: FMN 200 uM) 167 nM; (input ligand: arginine 13.2 mM) 168 nM; (input ligand: none) 176 nM; under setting [1], 180 nM; under setting [2], 151 nM.

As for “AUUUUUUUGUCAGGAUAUUAGUGUGGGUUUGGUUUGUUAGUGAUGUUGAUAUUUGUUUUAUGUAUUUAAGAAGGGAUUUAGCGGU [zzdxemullin]”, the “apparent KD of K4 kissing-loop reporter” value is 556 nM (input ligand: FMN 200 uM); 330 nM (input ligand: arginine 13.2 mM); 431 nM (input ligand: none); 443 nM under setting [1]; 285 nM under setting [2].

As to “CAAAUAAAUAUAAUUGAUAAGUGAUGUUGGCGAGGACCGGUACGGCCGCCACUCGAUAUCGGUCCAUUAACCGAGUGAUGUUUGG [Default title]”, the “apparent KD of K4 kissing-loop reporter” value (input ligand: FMN 200 uM) was found to be 102 nM; the “apparent KD of K4 kissing-loop reporter” value (input ligand: arginine 13.2 mM) stood at 58.9 nM; the “apparent KD of K4 kissing-loop reporter” value (input ligand: none) turned out to be 81.1 nM; the “apparent KD of K4 kissing-loop reporter” value under setting [1] was 67.4 nM; the “apparent KD of K4 kissing-loop reporter” value under setting [2] came to 83.7 nM.

On to “CAAUGAAUAUAAGAUGAUAUCAUAACAGAAGGAGCGAGUGAUAACUCAGGUAGGUCGCUGAAUUUAUCGAGUGAUGUUCGAUAAA [Same State Arginine A GF10]”, for which the “apparent KD of K4 kissing-loop reporter” value reads like this: (input ligand: FMN 200 uM) 208 nM; (input ligand: arginine 13.2 mM) 158 nM; (input ligand: none) 197 nM; under setting [1], 176 nM; under setting [2], 183 nM.

On to “CACCAUGAAUUCUCUAGGAGUGAUGUUUUUCGAGGACCGGUACGGCCGCCACUCGGACGAGGACCGUGGGAGCGGCGAAAAGACU [ghgmullin]”, for which the “apparent KD of K4 kissing-loop reporter” value worked out at 206 nM (input ligand: FMN 200 uM); 225 nM (input ligand: arginine 13.2 mM); 329 nM (input ligand: none); 152 nM under setting [1]; 309 nM under setting [2].

Take “CACCCUAGUUCAGAUACCAGACUAGAGACAGUGAUGUUGUCACAUCCUAAAUUGGGUGUAGUCCCUUGGCAGCUGAGUAAUCUGC [Theo B/Ex/SS double]”: the “apparent KD of K4 kissing-loop reporter” value reads like this: (input ligand: FMN 200 uM) 600 nM; (input ligand: arginine 13.2 mM) 635 nM; (input ligand: none) 724 nM; under setting [1], 596 nM; under setting [2], 540 nM.

In the case of “CACGUUUACCAAGGAUAUGGUCUGCCGCGGAACCGUUCAAGUGAUGUUUGAUUCGAGUAUUAAUCUCCAGAAGGUGGUAGUACAG [theeternabot_exclusion_KL_FMN_B_6]”, the “apparent KD of K4 kissing-loop reporter” value runs as follows: (input ligand: FMN 200 uM) 247 nM; (input ligand: arginine 13.2 mM) 353 nM; (input ligand: none) 417 nM; under setting [1], 476 nM; under setting [2], 342 nM.

In the case of “CAGAACUUGUAUAUAGGGUAUAUAAGAGAUACCAGUCAAAUUAAAGACCCUUGGCAGCUCAGGCGAGUGAUGUUCGCAGGCUAAC [Exclusion Theophylline A GF 17]”, the “apparent KD of K4 kissing-loop reporter” value stood at 112 nM (input ligand: FMN 200 uM); 111 nM (input ligand: arginine 13.2 mM); 113 nM (input ligand: none); 133 nM under setting [1]; 91.1 nM under setting [2].

Take “CAGCAUCAGGUUCAAACUGCAUGUACUGAUACCAGUCUUAAGAUCGACCCUUGGCAGCAGCUCCCGAGUGAUGUUCGUAGCGAGC [theeternabot_exclusion_KL_Theo_A_41]”: the “apparent KD of K4 kissing-loop reporter” value by setting is: (input ligand: FMN 200 uM) 362 nM; (input ligand: arginine 13.2 mM) 339 nM; (input ligand: none) 356 nM; under setting [1], 401 nM; under setting [2], 336 nM.
